Laboratory results from paper PMC6374916.

How the values were obtained:
[1] = molecular target: K18 ΔK280 tau oligomers, dual-labeled (tau-AF488/AF647 coaggregates); assay: single-molecule TIRF microscopy colocalisation; dual-labeled tau oligomers produced (heparin, 45 min, 37 °C) in the presence of 2 uM Hsp70-AF405 (1:5 Hsp70/tau), diluted into 0.05 M ammonium acetate pH 7 to 50–200 pM tau, adsorbed onto a glass cover slide for 15 min
[2] = molecular target: K18 ΔK280 tau-AF488 oligomers, large (10-mers and higher, apparent size); assay: FRET or BRET; smFRET saturation binding, pseudo-equilibrium, apparent constants; 100 nM tau-AF488 oligomers or 1200 nM fibrils (initial monomer concentration; donor) mixed with 0.5 nM to 10 uM Hsp70-AF647 (acceptor), 5 min on ice, then diluted to 200 pM tau and read on a confocal setup; oligomer size classes by fluorescence intensity
[3] = molecular target: K18 ΔK280 tau-AF488 fibrils; assay: as above

Row | stoichiometry N (Hsp70 molecules per tau monomer) [1] | Kd [2] [nM] | Kd [3] [nM] | Substance
1 | 0.5 | – | – | Hsp70 labeled with Alexa Fluor 405 (from UniProt P0DMV8 1-641) (natural protein)
2 | – | 170 | 19 | Hsp70 labeled with Alexa Fluor 647 (from UniProt P0DMV8 1-641) (natural protein)
